Test results published in ChEMBL document CHEMBL1132473.
Blank lines part the entries; values can stand above or below the molecule they belong to.

Key:
[1] = biological target: 4-aminobutyrate aminotransferase, mitochondrial (Sus scrofa) (UniProt P80147)
Description: (§1) Compound was tested for the inhibition of Gamma-amino-N-butyrate transaminase (GABA-AT)

[2] = tested on: N[C@@H]1C=C[C@H](C(=O)O)C1
Description: as §1

[3] = tested on: N[C@H]1C=C[C@@H](C(=O)O)C1
[4] = tested on: N[C@@H]1C=C[C@@H](C(=O)O)C1

Chain of 4-aminobutyrate aminotransferase, mitochondrial (Sus scrofa), P80147 (P80147 whole entry): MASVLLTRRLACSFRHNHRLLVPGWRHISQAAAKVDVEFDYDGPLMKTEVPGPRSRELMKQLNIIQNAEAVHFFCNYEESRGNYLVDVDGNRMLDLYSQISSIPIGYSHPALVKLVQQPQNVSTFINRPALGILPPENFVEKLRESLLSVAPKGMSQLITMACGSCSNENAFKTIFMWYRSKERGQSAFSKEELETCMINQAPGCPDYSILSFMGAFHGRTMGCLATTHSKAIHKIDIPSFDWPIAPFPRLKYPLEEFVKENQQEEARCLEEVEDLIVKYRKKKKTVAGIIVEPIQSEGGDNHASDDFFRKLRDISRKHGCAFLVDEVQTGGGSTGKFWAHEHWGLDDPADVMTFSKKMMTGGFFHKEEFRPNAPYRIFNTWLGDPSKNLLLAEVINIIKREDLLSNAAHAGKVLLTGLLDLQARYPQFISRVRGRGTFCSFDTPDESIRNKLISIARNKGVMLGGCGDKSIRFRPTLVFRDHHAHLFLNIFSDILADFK
Chain of 4-aminobutyrate aminotransferase, mitochondrial (Sus scrofa) (P80147 whole entry): as above
Description for NC1C=CC(C(=O)O)C1: as §1
Description for N[C@@H]1CC=C(C(=O)O)C1: as §1

k cat [1]: 0.195 s⁻¹
Molecule: N[C@@H]1C=C[C@H](C(=O)O)C1

Molecule: 4-aminobutyrate aminotransferase, mitochondrial (Sus scrofa), P80147
Km [2]: 100 µM
Km (NC1C=CC(C(=O)O)C1): 2300 µM
Km (N[C@@H]1CC=C(C(=O)O)C1): 1600 µM
Km [3]: No turn over
Km (N[C@H]1CC=C(C(=O)O)C1): No turn over
Km [4]: No turn over

k cat [1]: 0.667 s⁻¹
Molecule: NC1C=CC(C(=O)O)C1 (racemic)

k cat [1]: 0.625 s⁻¹
Molecule: N[C@@H]1CC=C(C(=O)O)C1
